Data from patent US20070122429A1, “Designed antigens to elicit neutralizing antibodies against sterically restricted antigen and method of using same” (priority 2005, published 2007).

Key:
[1] = molecular target: HIV-1 HXB2 Env (gp41 N-trimer region) (HIV-1 HXB2) (UniProt P04578); test: cell-based or functional assay
[2] = molecular target: HIV-1 JRFL Env (gp41 N-trimer region) (HIV-1 JRFL); test: cell-based or functional assay

| Substance | no inhibition of cell-cell fusion or viral infectivity (HXB2 Env) up to the stated concentration [1] | no inhibition of viral infectivity (JRFL Env) up to the stated concentration [2] | IC50, viral infectivity HXB2 [1] | IC50, viral infectivity JRFL [2] |
| --- | --- | --- | --- | --- |
| BPTI-H6 (from UniProt P00974 36-93) | > 1 µM | > 1 µM | – | – |
| GFP-H6 | > 1 µM | > 1 µM | – | – |
| MBP-H6 (from UniProt P0AEX9 27-392) | > 1 µM | > 10 µM | – | – |
| Ub-C37 (from UniProt P0CG48 1-76; P04578 625-661) | – | – | 6.8 nM | 37.7 nM |
